Experimental data published in paper PMC6333830.

Columns and labels:
[1] = target: KRAS4B GTPase domain (residues 1-173, C118S), un-phosphorylated (human) (UniProt P01116)
[2] = target: Src-phosphorylated 15N-KRAS (residues 1-173, C118S), not separated (human) (UniProt P01116)
[3] = target: KRAS4B GTPase domain (residues 1-173, C118S), un-phosphorylated (human) (UniProt P01116); remark: listed apart in the source
[4] = target: Src-phosphorylated 15N-KRAS (residues 1-173, C118S), not separated (human) (UniProt P01116); remark: listed apart in the source

Substance	fold acceleration of nucleotide exchange (GDP to GTPγS) of KRAS by SOS^cat at a ratio of 1:600, real-time NMR [1] [fold]	fold acceleration of nucleotide exchange (GDP to GTPγS) of pKRAS by SOS^cat at a ratio of 1:600, real-time NMR [2] [fold]	acceleration of the rate of GTP hydrolysis of KRAS by the RASA1 GAP domain at a 1:3000 molar ratio, real-time NMR [3] [%]	increase of the rate of GTP hydrolysis of pKRAS by the RASA1 GAP domain at a 1:3000 molar ratio, real-time NMR [4] [%]
catalytic domain of Son of Sevenless 1 (SOS^cat, residues 564-1049) (from UniProt Q07889 564-1049) (domain or fragment)	17	< 3	–	–
GAP domain of human RASA1 (residues 715-1074) (domain or fragment)	–	–	> 300	< 20
